{"source": "patent US9631002B2", "about": "“Methods and compositions for producing active vitamin K-dependent proteins” (The University of North Carolina at Chapel Hill, priority 2010, dated 2017)", "key": {"[1]": {"test_system": "FIXgla-PC carboxylation in HEK 293 cells", "type": "cell-based, human", "conditions": "11 μM vitamin K or 5 μM KO, HEK293"}, "[2]": {"test_system": "carboxylation of FIXgla-PC reporter protein in HEK293 cells (reduction of KO to vitamin K)", "assay": "Cell-based VKOR activity assay: recombinant VKOR/VKORH expressed in FIXgla-PC/HEK293 cells with KO and warfarin, carboxylated reporter by ELISA", "parameters": "species or system human", "conditions": "for ability of human VKOR with replaced residues 122-139 to use KO to carboxylate the reporter / support of carboxylation of the reporter protein with KO as substrate: 5 μM KO; for ability of human VKOR with replaced residues 122-139 to use KO to carboxylate the reporter: 2 μM warfarin, 48 h, HEK293 (FIG. 11C); for support of carboxylation of the reporter protein with KO as substrate: 4 μM warfarin, 48 h (FIG. 15B); for activity relative to MT-VKORH: KO as substrate, FIXgla-PC/HEK293 (FIG. 21B); for Relative activity: Human Y139F: VKOR of the organism compared to human Y139F VKOR, cell-based carboxylation; for carboxylation activity of modified human VKOR: FIGS. 23, 33"}, "[3]": {"test_system": "carboxylation of FIXgla-PC reporter protein in AV12 cells (reduction of vitamin K to KH2)", "assay": "Cell-based VKOR activity assay in FIXgla-PC/AV12 or FIXgla-PC/VKOR-Y139F/AV12 cells, carboxylated reporter by ELISA", "parameters": "species or system Syrian golden hamster", "conditions": "for ability of human VKOR with replaced residues 122-139 to use vitamin K to carboxylate the reporter: 11 μM K, 2 μM warfarin, 48 h, FIXgla-PC AV-12 (FIG. 11B); for activity in reducing vitamin K to KH2 to support carboxylation: transient expression in FIXgla-PC/VKOR-Y139F/AV12, KO and warfarin (FIG. 19A); for ability to reduce vitamin K to KH2 compared with MT-VKORH: FIXgla-PC/VKOR-Y139F/AV12 (FIG. 21C)"}}, "data": [{"molecule": "CC(=CCC12OC1(C)C(=O)c1ccccc1C2=O)CCCC(C)CCCC(C)CCCC(C)C", "note": "(stereo not drawn) [KO, Vitamin K1 2,3-epoxide]", "values": [{"measurement": "increase in secretion of carboxylated reporter protein compared to no additions", "setting": "[1]", "result": "approximately 25 fold"}]}, {"molecule": "hVKOR Arabidopsis: human VKOR with residues 122-139 replaced by Arabidopsis VKOR 185-202, SEQ ID NO:30 (protein, Human VKOR with amino acids 122-139 substituted with amino acids 185-202 of A. thaliana VKOR (RefSeq accession no. NP_567988)) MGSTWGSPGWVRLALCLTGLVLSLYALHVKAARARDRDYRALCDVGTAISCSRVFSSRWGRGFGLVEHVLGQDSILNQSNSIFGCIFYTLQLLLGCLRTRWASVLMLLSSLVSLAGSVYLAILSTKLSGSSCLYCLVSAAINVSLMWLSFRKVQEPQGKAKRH", "values": [{"measurement": "ability of human VKOR with replaced residues 122-139 to use KO to carboxylate the reporter", "setting": "[2]", "result": "only the human VKOR substituted with the M. tuberculosis domain functions as a VKOR"}, {"measurement": "ability of human VKOR with replaced residues 122-139 to use vitamin K to carboxylate the reporter", "setting": "[3]", "result": "can utilize vitamin K to produce carboxylated reporter protein"}]}, {"molecule": "AR-VKORH: Arabidopsis VKORH, NP_567988.1, SEQ ID NO:19 (protein, listed as Arabidopsis thaliana) MMARFVSVSSCQFHFGFREVSPPSVTSYPRRFEVSDRRFPAIPIKCSSSEPENGEDSAPSLSSSSSSSTSEVSTSNSSTYNWYTGIGGIGMLDTAYLTYLKVTGSDAFCPIGGGTCGDVLNSDYAVVFGVPLPVIGFVMYGVVTALSAELGEGNLPFGISKSNGRFALFGITTAMASASAYFLYILSTKLSGSSCLYCLVSAFLSFSLFFLSVKDVKLQEIQQVVGLQICLAIIVVASLTASYSTAQPIPSRSGDIELPYFRTEISSSSSPYAIALAKHLNSIGAKMYGAFWCSHCLEQKEMFGREAAKELNYVECFPDGYKKGTKILKACADAAIEGFPTWIINDKVLS", "values": [{"measurement": "support of carboxylation of the reporter protein with KO as substrate", "setting": "[2]", "result": "only MT-VKORH supported carboxylation"}, {"measurement": "activity in reducing vitamin K to KH2 to support carboxylation", "setting": "[3]", "result": "no significant activity"}]}, {"molecule": "SA-VKORH: Salinispora tropica CNB-440 VKORH, SEQ ID NO:24 (protein, Salinispora tropica CNB-440) MTTTANRPVTTPAERHFLAAVTAWVLTIGGAVGLLAAAALTVEKINLLADPGYVPTCSINPILSCGSVMNTPQAAVFGFPNPLLGIAGFAVVTTLGVTLLATGHLPRWMWLGLQGGVTFGVVFVHWLIYQSLYVIGALCPYCMVVWAVTIPIFLYTTLQTLRDNTTALPRALRRVTERVARYHSLVLVVWAAFVVVVILHRFWDYWSTLG", "values": [{"measurement": "activity relative to MT-VKORH", "setting": "[2]", "result": 30, "unit": "%"}, {"measurement": "ability to reduce vitamin K to KH2 compared with MT-VKORH", "setting": "[3]", "result": "higher than the KO to vitamin K reduction"}]}, {"molecule": "hVKOR DsbB: human VKOR with residues 122-139 replaced by bacterial DsbB 33-50, SEQ ID NO:32 (protein, Human VKOR with amino acids 122-139 substituted with amino acids 33-50 of DsbB enzyme (RefSeq accession no. ZP_03067529)) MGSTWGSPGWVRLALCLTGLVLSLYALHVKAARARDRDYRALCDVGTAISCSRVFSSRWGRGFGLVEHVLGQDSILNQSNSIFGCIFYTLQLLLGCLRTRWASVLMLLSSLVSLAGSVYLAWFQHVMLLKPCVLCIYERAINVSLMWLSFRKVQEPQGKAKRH", "values": [{"measurement": "ability of human VKOR with replaced residues 122-139 to use KO to carboxylate the reporter", "setting": "[2]", "result": "only the human VKOR substituted with the M. tuberculosis domain functions as a VKOR"}, {"measurement": "ability of human VKOR with replaced residues 122-139 to use vitamin K to carboxylate the reporter", "setting": "[3]", "result": "can utilize vitamin K to produce carboxylated reporter protein"}]}, {"molecule": "Xenopus tropicalis: Xenopus VKOR NP_001006928, SEQ ID NO:8, Y138F (protein, Xenopus (Silurana) tropicalis) MAVPGWERAVRLLLCGVGIALSVYAYHVETSRERDANYTALCDINPSISCSKVFTSRWGRGFGLVEQILGRQSFLNQPNSVFGILFYGLQVLLGFSGSVGAAAALLGTSLVSIAGSLYLAYILFYVLEDFCVICVTTFALNFCLLLLNLKRLASLRAPPKKQKNKRKKN", "values": [{"measurement": "Relative activity: Human Y139F", "setting": "[2]", "result": "Yes, greater"}]}, {"molecule": "CO-VKORH: Corynebacterium jeikeium K411 VKORH, SEQ ID NO:23 (protein, listed as Corynebacterium jeikeium) MWVWWGREGVSNKESEHMNGLGATKRFGYTFLVLSTIGLIFSALIMHDKVQMALDPNFEPACTFNEVISCTDVMASDQAATFGFANPFIGMIGFPVMMTLAVMLIVGAKLPRWIWYCALAGLAFGVAFVHWLAYSAIYSIGALCPYCMAVWAATLPMFVMTLVHIQREKRREAGEDVAHSALGMPLVVIIAWFLAFTALILDQFVF", "values": [{"measurement": "activity relative to MT-VKORH", "setting": "[2]", "result": 70, "unit": "%"}, {"measurement": "ability to reduce vitamin K to KH2 compared with MT-VKORH", "setting": "[3]", "result": "higher than the KO to vitamin K reduction"}]}, {"molecule": "V45N: human VKOR comprising a V45N substitution introducing an additional glycosylation site, SEQ ID NO:25 (protein, Human VKOR with V45N mutation) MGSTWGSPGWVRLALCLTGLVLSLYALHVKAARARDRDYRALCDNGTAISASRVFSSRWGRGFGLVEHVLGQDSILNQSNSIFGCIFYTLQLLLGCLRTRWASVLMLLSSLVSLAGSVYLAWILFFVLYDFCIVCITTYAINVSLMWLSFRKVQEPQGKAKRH", "values": [{"measurement": "carboxylation activity of modified human VKOR", "setting": "[2]", "result": "increased carboxylation activity"}]}, {"molecule": "SY-VKORH: Synechococcus sp. VKORH, SEQ ID NO:21 (protein, Synechococcus sp. JA-2-3B′a(2-13)) MASYLKLKAQEETWLQRHSRLILAILAGLGSLLTAYLTYTKLTEQPAAFCTGDGGCDLVLSSRWAEFLGIPTAAVGLLGFLGVLALAVLPDGLPLVKRWRWPALFGLVSAMTAFEMYMLYLMVAVLRQFCMYCTTAIILVAGLGLVTVLGHRWLDGGKLAFSYILVAFLTLVTTIGVYANQVPPPSPLAVGLAAHLRQIGGTMYGAYWCPHCQDQKELFGAAFDQVPYVECSPNGPGTPQAQECTEAGITSYPTWIINGRTYTGVRSLEALAVASGYPLEEGR", "values": [{"measurement": "support of carboxylation of the reporter protein with KO as substrate", "setting": "[2]", "result": "only MT-VKORH supported carboxylation"}, {"measurement": "activity in reducing vitamin K to KH2 to support carboxylation", "setting": "[3]", "result": "no significant activity"}]}, {"molecule": "Amphioxus: Amphioxus VKOR, SEQ ID NO:11, Y144F (protein, listed as Branchiostoma floridae) MAAGRSFRLPIWEILSRCMLCTAGLVLSGYAFYVETSKEADHSYTAMCDVSESVSCSKVFTSRFGRGFGLVEPILGADSPLNLPNSIFGLAFYIMQLCLGVVPGMSVSIVLLATSVLSCLGCVYLAYILYFILQDACIVCISTFVVNTFMLIVNIKRVLLQRKAILKKQQ", "values": [{"measurement": "Relative activity: Human Y139F", "setting": "[2]", "result": "Yes, greater"}]}, {"molecule": "Trichoplax: Trichoplax VKOR XM_002107720.1, SEQ ID NO:15 (protein, listed as Trichoplax adhaerens) MAAGRSFRLPIWEILSRCMLCTAGLVLSGYAFYVETSKEADHSYTAMCDVSESVSCSKVFTSRFGRGFGLVEPILGADSPLNLPNSIFGLAFYIMQLCLGVVPGMSVSIVLLATSVLSCLGCVYLAYILYFILQDACIVCISTYVVNTLMLVVNIKRVLLQRKALLKKQQ", "values": [{"measurement": "Relative activity: Human Y139F", "setting": "[2]", "result": "No"}]}, {"molecule": "Human VKOR with amino acids 44-50 substituted with amino acids DYKDDDDK (Flag tag): human VKOR cysteine loop 44-50 replaced with FLAG tag, SEQ ID NO:34 (protein, Human VKOR with amino acids 44-50 substituted with amino acids DYKDDDDK (Flag tag)) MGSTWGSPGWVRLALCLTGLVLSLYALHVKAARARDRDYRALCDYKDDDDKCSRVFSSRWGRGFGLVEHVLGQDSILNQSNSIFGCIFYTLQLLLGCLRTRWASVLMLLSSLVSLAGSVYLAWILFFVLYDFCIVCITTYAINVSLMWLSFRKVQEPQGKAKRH", "values": [{"measurement": "carboxylation activity of modified human VKOR", "setting": "[2]", "result": "increased activity"}]}, {"molecule": "Takifugu: Takifugu VKOR NP_001027838, SEQ ID NO:7, Y138F (protein, Takifugu rubripes) MAIPTWERKVRIFLCVFGLLLSVYALHVELSRERNPDYRAMCDLGESVSCSKVFSSRWGRGFGLVQYFVDKDSPLNQPNSVLGIIFYTLQMCLGLSLSRKAALFLVFSSWVSVAGSLYLASILAFVLGDFCMVCVSTFLVNFVLLFTNLKRRRAIEGLKEKSG", "values": [{"measurement": "Relative activity: Human Y139F", "setting": "[2]", "result": "Yes, greater"}]}, {"molecule": "RO-VKORH: Roseiflexus sp. RS-1 VKORH, SEQ ID NO:20 (protein, Roseiflexus sp. RS-1) MRRFLLTLIVSCMLTLSLSVASAAATVRAVLFYSPRCGHCHMVISEHLPPLQQRYGDQLQILMIDVDQAQGAALYREAIAVYAIPEARRGVPTMIISDTVLVGSVEIPQRLPGLIETLLARGGSDWPPIPGLADLLATVPTSAPAPPTLPPATAETPPFLRDLPANALAVVVLAGMLLTVMWAGITWSRPAQPPTRWRDRSIPLLAIGGMAVAAYLTFIETTGAPALCGPVGDCNAVQQSEFARLFGTIPVGAAGVAGYGAILIVWIVAHLLPGTSGERAALLLPALALIGTLFSIYLTFLEPFVIGATCLWCLTSAVIMTGLLWLSMPYRQRSTSRGYARR", "values": [{"measurement": "support of carboxylation of the reporter protein with KO as substrate", "setting": "[2]", "result": "only MT-VKORH supported carboxylation"}, {"measurement": "activity in reducing vitamin K to KH2 to support carboxylation", "setting": "[3]", "result": "significant activity"}]}]}
